Data on nine sequences can be found in the supplement of paper PMC10065799, “High-throughput profiling of sequence recognition by tyrosine kinases and SH2 domains using bacterial peptide display” (eLife, 2023).

One data set concerns the target c-Src SH2. In words: SH2 binding enrichment of the phosphorylated peptide, bacterial display (enrichment ratio); higher = better substrate or ligand; peptides without Tyr show the background.
For another data set, the target named is Grb2 SH2 (UniProt P62993). The data set is described as above.
Chain of Grb2 SH2 (P62993 whole entry, looked up): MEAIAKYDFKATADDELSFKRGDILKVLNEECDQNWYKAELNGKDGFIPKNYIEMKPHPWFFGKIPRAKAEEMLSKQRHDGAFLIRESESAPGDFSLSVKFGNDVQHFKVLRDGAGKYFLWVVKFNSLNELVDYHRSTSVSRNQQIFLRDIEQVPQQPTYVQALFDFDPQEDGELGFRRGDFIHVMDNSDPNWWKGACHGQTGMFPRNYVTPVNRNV
For another data set, the target named is SHP2-C SH2. The data set is described as above.
Another data set deals with MERTK (UniProt Q12866). Put plainly: phosphorylation enrichment, bacterial display (enrichment ratio); higher = better substrate or ligand; peptides without Tyr show the background.
Chain of MERTK (Q12866 whole entry, looked up): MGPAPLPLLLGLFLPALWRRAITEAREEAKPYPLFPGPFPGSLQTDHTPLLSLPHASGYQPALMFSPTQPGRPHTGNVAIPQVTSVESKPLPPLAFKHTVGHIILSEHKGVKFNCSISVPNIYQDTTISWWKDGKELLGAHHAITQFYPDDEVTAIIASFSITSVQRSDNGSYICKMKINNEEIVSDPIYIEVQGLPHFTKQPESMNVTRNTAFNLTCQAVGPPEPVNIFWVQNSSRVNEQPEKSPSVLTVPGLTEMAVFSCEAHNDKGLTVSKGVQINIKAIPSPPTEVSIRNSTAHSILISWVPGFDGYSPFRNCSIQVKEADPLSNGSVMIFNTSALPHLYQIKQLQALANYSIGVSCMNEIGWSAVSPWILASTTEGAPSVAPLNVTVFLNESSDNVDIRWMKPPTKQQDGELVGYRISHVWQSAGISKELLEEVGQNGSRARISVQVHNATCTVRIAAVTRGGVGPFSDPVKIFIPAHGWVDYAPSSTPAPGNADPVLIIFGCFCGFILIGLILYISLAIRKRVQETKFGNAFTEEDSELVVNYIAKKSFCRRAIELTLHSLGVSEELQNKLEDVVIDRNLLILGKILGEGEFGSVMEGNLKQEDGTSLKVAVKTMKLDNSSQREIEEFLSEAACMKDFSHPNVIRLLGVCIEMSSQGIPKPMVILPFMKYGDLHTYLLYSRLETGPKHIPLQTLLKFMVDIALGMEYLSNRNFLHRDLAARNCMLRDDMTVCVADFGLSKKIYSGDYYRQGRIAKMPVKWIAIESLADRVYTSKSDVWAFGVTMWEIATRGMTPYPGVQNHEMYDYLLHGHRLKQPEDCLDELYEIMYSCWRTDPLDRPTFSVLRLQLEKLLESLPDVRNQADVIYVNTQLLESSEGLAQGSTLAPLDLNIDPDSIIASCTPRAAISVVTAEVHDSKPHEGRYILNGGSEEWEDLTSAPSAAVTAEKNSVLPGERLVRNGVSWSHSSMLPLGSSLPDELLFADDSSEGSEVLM
The target in a further data set is Hck (UniProt P08631). Described as above.
Chain of Hck (P08631 whole entry, looked up): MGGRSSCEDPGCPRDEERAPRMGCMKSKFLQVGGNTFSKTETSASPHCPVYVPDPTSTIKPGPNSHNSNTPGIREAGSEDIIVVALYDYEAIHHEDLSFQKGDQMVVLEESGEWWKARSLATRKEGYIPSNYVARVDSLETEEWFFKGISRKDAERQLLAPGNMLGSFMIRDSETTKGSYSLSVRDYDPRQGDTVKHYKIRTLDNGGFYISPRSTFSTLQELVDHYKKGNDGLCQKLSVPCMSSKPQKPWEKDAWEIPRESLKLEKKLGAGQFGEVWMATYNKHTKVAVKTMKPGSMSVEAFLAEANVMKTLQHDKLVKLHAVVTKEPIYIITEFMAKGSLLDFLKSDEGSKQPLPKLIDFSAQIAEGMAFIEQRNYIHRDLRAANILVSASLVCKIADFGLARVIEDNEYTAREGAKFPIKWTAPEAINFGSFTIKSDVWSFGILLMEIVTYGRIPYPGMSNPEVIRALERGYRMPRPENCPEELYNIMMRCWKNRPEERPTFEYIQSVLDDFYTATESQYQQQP
In another data set the test system is AncSZ. Described as above.
The target of another data set is EPHB2 (UniProt P29323). Described as above.
Chain of EPHB2 (P29323 whole entry, looked up): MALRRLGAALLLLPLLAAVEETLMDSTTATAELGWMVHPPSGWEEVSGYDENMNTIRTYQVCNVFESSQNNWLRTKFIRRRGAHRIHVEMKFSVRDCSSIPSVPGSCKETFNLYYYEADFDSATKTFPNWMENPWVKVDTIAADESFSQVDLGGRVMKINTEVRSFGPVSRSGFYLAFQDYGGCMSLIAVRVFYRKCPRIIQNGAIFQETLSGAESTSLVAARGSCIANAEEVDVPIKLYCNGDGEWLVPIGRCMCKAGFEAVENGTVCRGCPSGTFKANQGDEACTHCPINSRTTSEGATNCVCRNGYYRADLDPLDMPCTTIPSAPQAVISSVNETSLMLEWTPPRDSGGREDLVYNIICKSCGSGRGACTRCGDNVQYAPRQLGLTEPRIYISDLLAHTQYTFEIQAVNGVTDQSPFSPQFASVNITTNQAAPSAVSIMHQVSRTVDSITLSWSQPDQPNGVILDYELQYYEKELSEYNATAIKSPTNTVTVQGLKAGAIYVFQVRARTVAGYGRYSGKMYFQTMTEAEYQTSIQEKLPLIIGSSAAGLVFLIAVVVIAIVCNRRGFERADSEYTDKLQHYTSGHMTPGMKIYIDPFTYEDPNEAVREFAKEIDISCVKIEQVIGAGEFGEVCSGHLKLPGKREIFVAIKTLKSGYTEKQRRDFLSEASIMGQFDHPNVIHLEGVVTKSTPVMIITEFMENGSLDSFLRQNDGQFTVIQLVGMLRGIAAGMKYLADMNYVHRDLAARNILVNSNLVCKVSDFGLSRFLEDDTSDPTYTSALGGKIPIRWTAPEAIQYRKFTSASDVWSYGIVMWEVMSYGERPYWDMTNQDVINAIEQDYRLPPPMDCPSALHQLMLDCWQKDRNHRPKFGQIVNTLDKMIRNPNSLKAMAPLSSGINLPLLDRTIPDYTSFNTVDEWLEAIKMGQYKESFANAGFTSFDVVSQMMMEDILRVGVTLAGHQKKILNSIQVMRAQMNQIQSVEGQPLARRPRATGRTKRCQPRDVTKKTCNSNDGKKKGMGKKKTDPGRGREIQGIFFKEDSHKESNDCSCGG
The next data set concerns c-Abl (mouse). The description is as above.
Another data set concerns the target Fyn (UniProt P06241). The description is as above.
In another data set the test system is c-Src. The data set is described as above.
A further data set deals with Jak2 (UniProt O60674). The description is as above.
The next data set addresses EPHB1 (UniProt P54762). The description is as above.
A further data set has as its target FGFR3 (UniProt P22607). The data set is described as above.
The target in the next data set is FGFR1 (UniProt P11362). The data set is described as above.
Chain of FGFR1 (P11362 whole entry, looked up): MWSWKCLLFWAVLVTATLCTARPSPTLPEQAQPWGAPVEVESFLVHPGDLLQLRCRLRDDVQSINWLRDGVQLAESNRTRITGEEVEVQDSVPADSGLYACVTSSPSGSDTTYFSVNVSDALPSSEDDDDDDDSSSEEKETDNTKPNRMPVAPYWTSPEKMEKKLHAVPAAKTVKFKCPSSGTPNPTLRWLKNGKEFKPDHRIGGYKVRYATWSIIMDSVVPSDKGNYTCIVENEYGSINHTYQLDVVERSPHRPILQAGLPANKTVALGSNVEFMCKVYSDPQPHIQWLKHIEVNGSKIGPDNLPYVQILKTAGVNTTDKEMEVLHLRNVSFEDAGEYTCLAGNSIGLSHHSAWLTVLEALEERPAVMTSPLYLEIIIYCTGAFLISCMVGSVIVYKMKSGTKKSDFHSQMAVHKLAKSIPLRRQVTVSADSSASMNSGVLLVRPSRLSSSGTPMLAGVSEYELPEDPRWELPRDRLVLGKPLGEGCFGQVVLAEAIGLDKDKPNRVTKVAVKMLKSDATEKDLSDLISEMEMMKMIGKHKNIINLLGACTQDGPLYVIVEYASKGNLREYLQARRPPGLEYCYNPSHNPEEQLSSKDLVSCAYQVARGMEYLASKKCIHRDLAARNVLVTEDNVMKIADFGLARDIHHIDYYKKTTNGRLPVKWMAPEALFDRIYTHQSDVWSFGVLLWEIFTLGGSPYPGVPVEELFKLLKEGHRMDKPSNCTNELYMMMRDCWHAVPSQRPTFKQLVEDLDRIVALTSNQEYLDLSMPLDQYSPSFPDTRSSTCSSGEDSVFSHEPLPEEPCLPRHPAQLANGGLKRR
Another data set has as its target Fes (UniProt P07332). The data set is described as above.
Another data set relates to Fer (mouse). The data set is described as above.
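For SH2 binding enrichment of the phosphorylated peptide, bacterial display in this document: peptide library displayed on the E. coli surface as eCPX fusions, selected cells deep-sequenced, score is each peptide's frequency after selection divided by its frequency in the input.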
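For phosphorylation enrichment, bacterial display in this document: 11-residue human phosphosite peptides and single-mutation variants displayed on the E. coli surface, counted by deep sequencing, each peptide's frequency after selection divided by its frequency in the unselected input library; frequency after pTyr selection over input frequency; kinase dosed for 20-30% of maximal phosphorylation in three min.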

Chain of FGFR3 (P22607 whole entry, looked up): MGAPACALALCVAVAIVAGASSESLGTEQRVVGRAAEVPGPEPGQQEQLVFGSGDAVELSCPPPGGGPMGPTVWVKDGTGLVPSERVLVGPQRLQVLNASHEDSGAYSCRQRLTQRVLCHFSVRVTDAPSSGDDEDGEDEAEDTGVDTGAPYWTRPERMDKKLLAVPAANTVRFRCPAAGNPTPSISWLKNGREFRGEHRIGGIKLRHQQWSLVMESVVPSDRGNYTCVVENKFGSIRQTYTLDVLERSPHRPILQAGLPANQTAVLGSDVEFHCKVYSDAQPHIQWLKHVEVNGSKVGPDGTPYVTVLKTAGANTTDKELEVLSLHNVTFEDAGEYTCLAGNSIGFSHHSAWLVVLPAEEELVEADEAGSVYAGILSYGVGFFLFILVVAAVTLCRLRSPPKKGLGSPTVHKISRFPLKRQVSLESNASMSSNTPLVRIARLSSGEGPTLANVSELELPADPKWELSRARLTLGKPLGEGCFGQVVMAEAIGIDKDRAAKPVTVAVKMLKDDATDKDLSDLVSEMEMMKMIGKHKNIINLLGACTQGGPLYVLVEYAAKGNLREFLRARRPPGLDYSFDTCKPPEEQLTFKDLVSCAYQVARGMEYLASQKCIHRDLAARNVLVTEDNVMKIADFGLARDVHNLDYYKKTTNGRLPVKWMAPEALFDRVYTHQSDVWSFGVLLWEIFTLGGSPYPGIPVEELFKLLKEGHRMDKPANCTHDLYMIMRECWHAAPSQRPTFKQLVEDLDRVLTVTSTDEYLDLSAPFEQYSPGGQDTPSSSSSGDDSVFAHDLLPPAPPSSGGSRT
Chain of Fyn (P06241 whole entry, looked up): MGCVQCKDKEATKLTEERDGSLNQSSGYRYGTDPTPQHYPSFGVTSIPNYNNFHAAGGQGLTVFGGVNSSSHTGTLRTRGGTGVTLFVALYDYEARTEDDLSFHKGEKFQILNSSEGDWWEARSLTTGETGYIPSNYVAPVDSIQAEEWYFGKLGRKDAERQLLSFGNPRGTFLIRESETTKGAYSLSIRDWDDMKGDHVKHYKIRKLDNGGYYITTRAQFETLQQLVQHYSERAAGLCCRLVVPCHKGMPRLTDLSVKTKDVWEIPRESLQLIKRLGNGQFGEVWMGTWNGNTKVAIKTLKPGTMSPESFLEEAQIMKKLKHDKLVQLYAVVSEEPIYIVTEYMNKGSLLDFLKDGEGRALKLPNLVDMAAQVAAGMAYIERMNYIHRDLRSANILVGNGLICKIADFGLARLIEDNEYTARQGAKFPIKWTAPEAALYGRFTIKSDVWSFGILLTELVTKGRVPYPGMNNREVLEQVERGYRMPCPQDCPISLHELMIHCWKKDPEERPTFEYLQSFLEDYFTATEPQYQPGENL

For the sequence LEPHIYAVADV [MYO9A_Y216], the results for the SH2 binding enrichment in the data set with c-Src SH2, with Grb2 SH2 and with SHP2-C SH2 were 3.29, 0.979 and 0.789, respectively. In addition, the phosphorylation enrichment with MERTK stood at 1.28; in the data set with Hck, 1.6; with AncSZ, 0.926; with EPHB2, 1.2; in the data set on c-Abl (mouse) it was 14.1; in the data set with Fyn, 1.74. The phosphorylation enrichment with c-Src stood at 2.11; in the data set with Jak2, 0.741; with EPHB1 it was 0.822; with FGFR3, 0.616; with FGFR1 it was 0.469; with Fes, 1.02. Moreover, the phosphorylation enrichment with Fer (mouse) was determined as 1.64.

Take CTTIHYNFMFN [TP53_Y234_C238F_YF]: the figures for the SH2 binding enrichment with c-Src SH2, with Grb2 SH2 and with SHP2-C SH2 were 0.756, 0.975 and 1.08, respectively. For the same sequence, the phosphorylation enrichment is 0.595 with MERTK; 0.569 with Hck; 1.27 with AncSZ; 0.684 in the data set with EPHB2; 1.04 with c-Abl (mouse); 0.52 with Fyn. Also, the phosphorylation enrichment was determined as 0.586 with c-Src; 1.34 with Jak2; 0.786 with EPHB1; 0.945 with FGFR3; 0.676 with FGFR1; 1.61 with Fes. Further, in the data set on Fer (mouse), the phosphorylation enrichment came to 0.789.

In the case of LKLWDYRRGRC [WDR5B_Y239_S240R], the SH2 binding enrichment with c-Src SH2 was determined as 0.415; with Grb2 SH2, 0.705; with SHP2-C SH2, 0.399. Moreover, the phosphorylation enrichment with MERTK is 0.708; with Hck, 0.541; in the data set with AncSZ, 0.871; in the data set with EPHB2, 0.857; in the data set with c-Abl (mouse) it was 0.728; in the data set with Fyn it was 0.604. The phosphorylation enrichment in the data set with c-Src turned out to be 0.672; in the data set with Jak2 it was 0.683; with EPHB1 it was 0.664; in the data set with FGFR3, 0.699; with FGFR1, 0.681; in the data set with Fes, 0.757. Also, the phosphorylation enrichment in the data set with Fer (mouse) worked out at 0.605.

For the sequence SIIKDYFHRGT [GATM_Y203_A208T], the SH2 binding enrichment with c-Src SH2 came to 0.469; in the data set with Grb2 SH2 it was 0.685; in the data set with SHP2-C SH2 it was 0.631. The phosphorylation enrichment in the data set with MERTK was 0.365; in the data set with Hck it was 0.463; with AncSZ it was 0.656; in the data set with EPHB2 it was 0.604; in the data set on c-Abl (mouse), 0.514; in the data set with Fyn it was 0.433. In addition, the phosphorylation enrichment with c-Src turned out to be 0.569; in the data set with Jak2, 0.551; in the data set with EPHB1 it was 0.42; with FGFR3, 0.542; with FGFR1, 0.476; with Fes, 0.62. In the data set on Fer (mouse), the phosphorylation enrichment stood at 0.465.

Turning to YTDPYYDYEIE [ZC3H18_Y372_A368T], the SH2 binding enrichment with c-Src SH2 amounted to 2.02; with Grb2 SH2 it was 0.822; with SHP2-C SH2, 0.494. For the same sequence, the phosphorylation enrichment is 1.31 with MERTK; 0.967 with Hck; 2.13 in the data set on AncSZ; 1.06 in the data set with EPHB2; 0.871 with c-Abl (mouse); 1.96 with Fyn. Besides, the phosphorylation enrichment with c-Src is 2.94; with Jak2, 1.31; with EPHB1 it was 1.39; with FGFR3, 7.56; with FGFR1, 9.65; with Fes, 1.27. In the data set on Fer (mouse), the phosphorylation enrichment was 1.22.

Take EQKKYYNAMKN [SCN5A_Y1495_K1500N]: the SH2 binding enrichment with c-Src SH2 was 0.431; in the data set with Grb2 SH2, 0.664; in the data set with SHP2-C SH2, 0.809. In addition, the phosphorylation enrichment was 0.356 with MERTK; 0.405 in the data set with Hck; 0.507 with AncSZ; 0.335 in the data set with EPHB2; 0.489 in the data set with c-Abl (mouse); 0.292 in the data set with Fyn. Also, the phosphorylation enrichment in the data set with c-Src was determined as 0.359; with Jak2, 0.489; with EPHB1, 0.388; with FGFR3, 0.382; with FGFR1, 0.336; with Fes it was 0.536. The phosphorylation enrichment in the data set on Fer (mouse) turned out to be 0.354.

On to DNAYQYMLTDR [MYH7_Y164], for which the SH2 binding enrichment worked out at 1.34 with c-Src SH2, 0.7 in the data set with Grb2 SH2 and 0.664 in the data set with SHP2-C SH2. Besides, the phosphorylation enrichment in the data set with MERTK is 1.27; with Hck it was 0.608; with AncSZ, 1.23; with EPHB2, 0.461; with c-Abl (mouse) it was 0.526; in the data set with Fyn, 0.658. In addition, the phosphorylation enrichment in the data set with c-Src was found to be 0.767; with Jak2, 0.85; in the data set with EPHB1 it was 0.61; with FGFR3 it was 2.3; with FGFR1, 3.6; with Fes, 0.859. The phosphorylation enrichment in the data set on Fer (mouse) stood at 2.74.

With KGFRGYSFDDI [TMEM230_Y110_YF], the SH2 binding enrichment with c-Src SH2 was found to be 0.453; in the data set with Grb2 SH2, 0.863; in the data set with SHP2-C SH2 it was 0.678. In addition, the phosphorylation enrichment in the data set with MERTK was 0.375; in the data set with Hck it was 0.412; in the data set with AncSZ, 0.824; with EPHB2, 0.541; with c-Abl (mouse), 0.551; in the data set with Fyn it was 0.402. The phosphorylation enrichment in the data set with c-Src is 0.452; with Jak2 it was 0.835; with EPHB1, 0.495; in the data set with FGFR3, 0.501; in the data set with FGFR1, 0.41; with Fes it was 0.798. Also, the phosphorylation enrichment in the data set on Fer (mouse) is 0.409.

On to LEISPYMLSGP [LRRK2_Y1718_R1723P], for which the SH2 binding enrichment in the data set with c-Src SH2 came out at 0.517; in the data set with Grb2 SH2 it was 0.904; with SHP2-C SH2 it was 0.465. For the same sequence, the phosphorylation enrichment amounted to 1.97 with MERTK; 1.1 with Hck; 1.53 in the data set with AncSZ; 0.633 with EPHB2; 0.866 in the data set with c-Abl (mouse); 3.67 in the data set with Fyn. The phosphorylation enrichment in the data set with c-Src was determined as 3.58; with Jak2, 1.35; with EPHB1, 0.753; with FGFR3, 0.983; with FGFR1, 0.921; with Fes, 1.16. The phosphorylation enrichment in the data set with Fer (mouse) was 2.63.
